Sequences and labels used below:
T1: (Homo sapiens, UniProt P11474)
T1 sequence (P11474 1-423): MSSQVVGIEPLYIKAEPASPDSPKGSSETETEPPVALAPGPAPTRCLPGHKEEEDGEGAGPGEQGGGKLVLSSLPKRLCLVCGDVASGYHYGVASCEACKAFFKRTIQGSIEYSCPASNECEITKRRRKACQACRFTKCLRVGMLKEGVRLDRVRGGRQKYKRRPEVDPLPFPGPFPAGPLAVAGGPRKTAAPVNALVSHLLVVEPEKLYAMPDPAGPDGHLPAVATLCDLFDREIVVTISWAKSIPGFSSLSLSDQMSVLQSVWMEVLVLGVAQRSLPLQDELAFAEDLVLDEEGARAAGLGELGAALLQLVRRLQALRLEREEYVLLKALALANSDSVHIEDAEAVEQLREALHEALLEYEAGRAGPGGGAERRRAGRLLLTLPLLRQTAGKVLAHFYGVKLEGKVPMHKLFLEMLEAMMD

T2: ERRgamma ligand-binding domain (LBD) (Homo sapiens, UniProt P62508)
T2 sequence (P62508 233-457 limits assumed): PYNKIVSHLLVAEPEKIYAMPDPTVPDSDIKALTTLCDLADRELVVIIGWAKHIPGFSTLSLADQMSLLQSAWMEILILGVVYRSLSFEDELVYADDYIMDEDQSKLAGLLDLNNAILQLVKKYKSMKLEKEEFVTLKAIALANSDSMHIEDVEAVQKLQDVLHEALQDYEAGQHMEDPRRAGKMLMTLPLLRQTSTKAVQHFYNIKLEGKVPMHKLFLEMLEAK

T3: ERα (Homo sapiens, UniProt P03372)
T3 sequence (P03372 1-595): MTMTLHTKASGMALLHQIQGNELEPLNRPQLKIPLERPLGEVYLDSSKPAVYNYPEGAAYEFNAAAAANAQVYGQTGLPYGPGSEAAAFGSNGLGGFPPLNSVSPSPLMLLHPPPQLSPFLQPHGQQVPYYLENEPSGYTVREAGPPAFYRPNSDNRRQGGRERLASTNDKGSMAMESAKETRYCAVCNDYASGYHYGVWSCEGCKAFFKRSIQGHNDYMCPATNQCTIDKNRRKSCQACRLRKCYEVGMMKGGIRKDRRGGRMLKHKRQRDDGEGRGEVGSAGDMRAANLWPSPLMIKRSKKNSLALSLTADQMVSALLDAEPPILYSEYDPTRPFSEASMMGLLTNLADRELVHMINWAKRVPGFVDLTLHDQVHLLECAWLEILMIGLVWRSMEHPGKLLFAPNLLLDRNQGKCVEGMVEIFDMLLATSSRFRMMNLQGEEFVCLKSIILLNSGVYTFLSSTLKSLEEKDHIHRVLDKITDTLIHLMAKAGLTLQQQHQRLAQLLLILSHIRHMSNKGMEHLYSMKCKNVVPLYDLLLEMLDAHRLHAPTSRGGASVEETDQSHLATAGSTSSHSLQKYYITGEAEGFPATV

T4: native human ESRRG protein (Estrogen-receptor related receptor gamma) (human, UniProt P62508 229-458, limits assumed)
T4 construct: the screened protein is called 'native human ESRRG protein'; also called ESSRG; ERRγ
T4 sequence (looked up): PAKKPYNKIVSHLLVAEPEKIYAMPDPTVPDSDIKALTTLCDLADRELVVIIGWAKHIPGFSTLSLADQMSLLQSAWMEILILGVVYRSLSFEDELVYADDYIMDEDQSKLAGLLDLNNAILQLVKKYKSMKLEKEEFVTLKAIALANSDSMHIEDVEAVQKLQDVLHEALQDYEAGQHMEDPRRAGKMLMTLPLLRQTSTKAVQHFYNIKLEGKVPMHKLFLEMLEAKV

T5: Annexin A5 (Homo sapiens (Human), UniProt P08758 2-320, directly labeled with a fluorescent tag (Cy 5 per paragraph 324; Cy3 per paragraph 57))
T5 construct: also called ANXA5; ANX-A5
T5 sequence: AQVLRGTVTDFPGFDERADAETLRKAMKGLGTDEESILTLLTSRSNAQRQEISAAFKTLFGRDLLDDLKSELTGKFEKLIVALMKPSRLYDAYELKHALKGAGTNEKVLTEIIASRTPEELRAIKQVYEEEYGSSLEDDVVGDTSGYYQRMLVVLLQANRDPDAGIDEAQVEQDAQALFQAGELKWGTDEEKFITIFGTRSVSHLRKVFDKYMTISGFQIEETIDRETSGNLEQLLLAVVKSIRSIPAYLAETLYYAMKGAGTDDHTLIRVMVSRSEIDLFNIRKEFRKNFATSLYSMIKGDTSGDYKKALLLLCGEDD

Where no end group is shown, it is not given here. Where only a bound is given, the exact number is not on record here.

The term IC50 denotes the concentration at which inhibition is half-maximal. Usually Kd stands for the concentration at which binding is half-saturated. Read a low Kd as higher affinity.

One assay addresses T1, (Homo sapiens, UniProt P11474).
Test: not given
The settings on record: phage display peptides; cited from earlier work.
For the molecule IPLSGSELSRLLLTEMPEL [Peptide L3-80], the “inhibition of transcriptional activity of EPPα” value (“inhibition” for short) is on record as “reducing the transcriptional activity of EPPα to basal levels”.
Regarding MSVQYPELQRLLMAGSTEL [Peptide L3-28], the “inhibition” value is reported as “reducing the transcriptional activity of EPPα to basal levels”.
As for PSEDRGELWRLLSVTERQN [Peptide L3-09], the “inhibition” value is listed as “reducing the transcriptional activity of EPPα to basal levels”.

Another assay has as its target T2, ERRgamma ligand-binding domain (LBD).
Test: not given
The conditions noted are these: in the absence of ligand; cited from earlier work.
Take EAEEPSLLKKLLLAPANTQ [PGC1alpha]: the “interaction with ERRgamma” value was “interacted most strongly”.
As to GPQTPQAQQKSLLQQLLTE [SRC1-4], the “interaction with ERRgamma” value was “interacted most strongly”.
In the case of LPYEGSLLLKLLRAPVEEV [Peptide D22], the “interaction with ERRgamma” value is given as “interacted most strongly”.

Staying with this assay, now noted: increasing concentrations; cited from earlier work.
In the case of 4-hydroxytamoxifen, the “displacement of fluorescein-labeled PGC1alpha peptide from the ERRgamma LBD” value is reported as “displaced”.

Another assay has as its system mAb-E2.
Test: not given
The conditions noted are these: cited from earlier work.
VSWFFE [EMP-1]: the IC50 was 6 nM.
In the case of VSWFFED [EMP-2], the IC50 was 30 nM.

For another assay, the target named is ERβ (Homo sapiens, UniProt Q92731).
Chain of ERβ (Q92731 whole entry, species assumed): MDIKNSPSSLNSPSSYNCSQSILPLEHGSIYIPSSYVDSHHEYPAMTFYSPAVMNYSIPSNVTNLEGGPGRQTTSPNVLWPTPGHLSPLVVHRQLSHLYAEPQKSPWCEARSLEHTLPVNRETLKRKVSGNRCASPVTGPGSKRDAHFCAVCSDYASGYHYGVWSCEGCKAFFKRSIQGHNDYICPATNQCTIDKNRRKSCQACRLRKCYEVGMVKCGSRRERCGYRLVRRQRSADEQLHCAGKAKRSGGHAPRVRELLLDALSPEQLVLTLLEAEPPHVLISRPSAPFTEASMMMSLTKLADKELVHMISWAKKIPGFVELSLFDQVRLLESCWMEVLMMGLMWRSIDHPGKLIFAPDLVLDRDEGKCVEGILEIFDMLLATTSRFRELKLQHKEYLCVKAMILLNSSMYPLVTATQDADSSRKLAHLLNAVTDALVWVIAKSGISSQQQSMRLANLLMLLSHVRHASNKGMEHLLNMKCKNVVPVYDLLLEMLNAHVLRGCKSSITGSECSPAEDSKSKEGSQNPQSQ
Test: not given
The settings on record: inhibition of estrogen receptor/coactivator recognition; read-out: K, values ERβ; cited from earlier work.
Consider KHKILHRLLQDSS [Structure 4], for which the Ki is 6900 nM.
As to KKILHRLLQ [Structure 3], the Ki was 2800 nM.
As to “LEQLL [Structure 1, H-Leu-Glu-Gln-Leu-Leu-OH]”, the Ki is 201000 nM.
For the molecule LTERHKILHRLLQEGSPSD [Structure 9], the Ki is 5200 nM.
In the case of “Mannosylacetyl-Leu-Glu-Gln-Leu-Leu-OH (Mannosylacetyl-LEQLL-OH) [Structure 2]”, the Ki is over 200000 nM.
Turning to QAQQKSLLQQLLTE [Structure 10], the Ki was 1100 nM.

Staying with this assay, now noted: ratio of K values; cited from earlier work.
Regarding KHKILHRLLQDSS [Structure 4], the ERβ/ERα is reported as 18.1.
For KKILHRLLQ [Structure 3], the ERβ/ERα is given as 16.5.
In the case of LTERHKILHRLLQEGSPSD [Structure 9], the ERβ/ERα is given as 7.4.
QAQQKSLLQQLLTE [Structure 10]: the ERβ/ERα was 2.4.

Another assay concerns the target T3, ERα.
Test: not given
The conditions noted are these: cited from earlier work.
For VSWFFE [EMP-1], the half-inhibitory concentration (IC50) is 100000 nM.
With VSWFFED [EMP-2], the half-maximal inhibitory concentration (IC50) was 100000 nM.

System in a further assay: not given
Test: not given
The conditions noted are these: cited from earlier work.
Consider VSWFFE [EMP-1], for which the “estrogenic activity in vivo” value is given as “possess estrogenic activity in vivo”.
For VSWFFED [EMP-2], the “estrogenic activity in vivo” value is recorded as “possess estrogenic activity in vivo”.

A further assay deals with T4, native human ESRRG protein …. The assay is described as follows: peptide microarray, Iteration 1; bound ESRRG detected with fluorescent anti-ESRRG mAb.
Conditions: not given
How it is done:
Screening was carried out typically by hybridization of the protein (1 μg/mL) against the array for 1 h at 4° C.; detection of bound protein was carried out using a fluorescently labeled anti-ESRRG mAb. (Direct labeling of ESRRG and alternative detection strategies are equally valid).
Daughter candidate ligands and their new Tier 3 and/or Tier 1 based combinations were synthesized in situ on an addressable peptide microarray and screened against native human ESRRG protein in order to determine sequences that bind to this protein. Bound protein was detected by a fluorescently labeled anti-ESRRG mAb. […] Excess (100×) competing biological matrices (human serum, HSA/BSA or bacterial protein extract) were used as backgrounds to select for specific ligands to the protein. Other competing proteins can be added to background for specificity selection and directed evolution of ligands.
In the case of Ac-AANMFLLL, the “Sample B (Probe) Signal” value is 1750 fluorescence intensity units and the “log2 (Sample B/Sample A)” value turned out to be 5.37.
As to Ac-LLHSSKSQ, the “Sample B (Probe) Signal” value was 819 fluorescence intensity units and the “log2 (Sample B/Sample A)” value is 5.4.
Regarding Ac-LLHKSKSQ, the “Sample B (Probe) Signal” value is 962 fluorescence intensity units and the “log2 (Sample B/Sample A)” value turned out to be 4.99.
For the molecule Ac-NIKVNANN, the “Sample B (Probe) Signal” value is 599 fluorescence intensity units and the “log2 (Sample B/Sample A)” value turned out to be 7.62.
Regarding Ac-AIRGALMG, the “Sample B (Probe) Signal” value is 851 fluorescence intensity units and the “log2 (Sample B/Sample A)” value turned out to be 5.48.
For the molecule Ac-AIRLHLMG, the “Sample B (Probe) Signal” value was 943 fluorescence intensity units and the “log2 (Sample B/Sample A)” value is 5.07.

For a further assay the target is unchanged. Description: custom peptide microarray density chip.
Conditions: not given
Take Ac-AANMFLLL: the dissociation constant (Kd) was determined as 29 nM.
Ac-LLHSSKSQ: the Kd was found to be 28.3 nM.
The molecule Ac-LLHKSKSQ came in with a Kd of 28.5 nM.
Ac-NIKVNANN had a Kd of 17 nM.
Molecule Ac-AIRGALMG came in with a Kd of 27.4 nM.
On to Ac-AIRLHLMG, for which binding was characterised by a dissociation constant (Kd) of 22.4 nM.

The next assay has as its target T5, Annexin A5. The assay is described as follows: peptide density-array chip.
Conditions: not given
For AYLHHAAG (Array-synthesised 8-mer), the dissociation constant (Kd) was 87.6 nM.
For the molecule AYLHYAAG (Array-synthesised 8-mer), the Kd came out at 21.9 nM.
With AYLMHAAG (Array-synthesised 8-mer), binding was put at a Kd of 63 nM.
Same read-out and setting: the same measure for AYLGYAAG (Array-synthesised 8-mer): 24.5 nM; for AYLVHAAG (Array-synthesised 8-mer): 92.2 nM; for AYLHGAAG (Array-synthesised 8-mer): 93.1 nM.
In the case of AYLGHAAG (Array-synthesised 8-mer), binding was characterised by a dissociation constant (Kd) of 57.5 nM.
SERYWARY (Array-synthesised 8-mer): binding was put at a Kd of 91.7 nM.
On the same count and under the same terms, the same measure for SERCWARY (Array-synthesised 8-mer): 218 nM; for SERYYARY (Array-synthesised 8-mer): 361 nM.
The molecule SERYSARY (Array-synthesised 8-mer) displayed a Kd of 82.5 nM.
With SERCYARY (Array-synthesised 8-mer), the equilibrium dissociation constant (Kd) stood at 301 nM.
Take SERYTARY (Array-synthesised 8-mer): the Kd turned out to be 86.9 nM.
The molecule SERFFARY (Array-synthesised 8-mer) came in with a Kd of 520 nM.

The next assay deals with T3, ERα.
Test: not given
The conditions noted are these: inhibition of estrogen receptor/coactivator recognition; cited from earlier work.
In the case of “LEQLL [Structure 1, H-Leu-Glu-Gln-Leu-Leu-OH]”, the “K, values ERα” value is listed as “not active”.

Staying with this assay, now noted: inhibition of estrogen receptor/coactivator recognition; read-out: K, values ERα; cited from earlier work.
Turning to KHKILHRLLQDSS [Structure 4], the Ki is 380 nM.
Regarding KKILHRLLQ [Structure 3], the Ki was 170 nM.
Turning to LTERHKILHRLLQEGSPSD [Structure 9], the Ki was 700 nM.
Take “Mannosylacetyl-Leu-Glu-Gln-Leu-Leu-OH (Mannosylacetyl-LEQLL-OH) [Structure 2]”: the Ki is over 200000 nM.
Take QAQQKSLLQQLLTE [Structure 10]: the Ki is 450 nM.
